According to article PMC11369174 (Molecular Systems Biology, 2024):
Where no end group is shown, it is not given here.

Columns and labels:
Conditions in all cases: both partners purified
[1] = target: T1, CREBBP KIX (human, UniProt Q92793 587-666); experiment: fluorescence polarisation; displacement: unlabelled peptide titrated onto a complex of FITC-labelled peptide (10 nM) and protein domain (1-2x KD); 50 mM sodium phosphate buffer pH 7.4 (CASK: plus 100 mM NaCl); KD calculated from IC50; technical triplets
T1 construct: CREBBP, KIX domain; limits in Dataset EV2; source: E. coli BL21 DE (Gold), purified

[2] = target: T2, Ras-GTPase-activating protein-binding protein 1 (G3BP1) NTF2 domain (human, UniProt Q13283 11-133); experiment: as above
T2 construct: G3BP1, NTF2 domain; limits in Dataset EV2; source: E. coli BL21 DE (Gold), purified
T2 sequence (Q13283 11-133): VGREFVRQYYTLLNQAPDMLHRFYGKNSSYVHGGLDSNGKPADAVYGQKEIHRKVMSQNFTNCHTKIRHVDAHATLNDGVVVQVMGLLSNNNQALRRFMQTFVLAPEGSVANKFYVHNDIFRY

[3] = target: T3, clathrin N-terminal domain (CLTC NTD) (human); experiment: as above
T3 chain: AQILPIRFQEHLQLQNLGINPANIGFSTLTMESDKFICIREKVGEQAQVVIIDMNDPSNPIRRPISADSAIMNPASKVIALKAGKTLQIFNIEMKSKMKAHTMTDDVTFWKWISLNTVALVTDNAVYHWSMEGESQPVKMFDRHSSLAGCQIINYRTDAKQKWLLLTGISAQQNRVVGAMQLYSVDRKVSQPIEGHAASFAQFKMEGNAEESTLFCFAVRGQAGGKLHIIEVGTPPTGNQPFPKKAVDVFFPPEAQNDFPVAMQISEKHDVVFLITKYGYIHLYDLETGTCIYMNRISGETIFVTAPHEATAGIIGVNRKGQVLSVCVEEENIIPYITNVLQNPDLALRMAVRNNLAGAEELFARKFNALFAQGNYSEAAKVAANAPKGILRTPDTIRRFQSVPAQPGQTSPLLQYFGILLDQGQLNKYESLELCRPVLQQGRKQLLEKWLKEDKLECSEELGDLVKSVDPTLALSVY

[4] = target: T4, Ras-GTPase-activating protein-binding protein 2 (G3BP2) NTF2 domain (human, UniProt Q9UN86 11-133); experiment: as above
T4 construct: G3BP2, NTF2 domain; limits in Dataset EV2; source: E. coli BL21 DE (Gold), purified
T4 sequence (looked up): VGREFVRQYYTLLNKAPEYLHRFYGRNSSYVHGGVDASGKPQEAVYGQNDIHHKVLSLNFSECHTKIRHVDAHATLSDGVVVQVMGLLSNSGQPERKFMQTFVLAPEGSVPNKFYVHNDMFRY

[5] = target: T5, ADP-ribosylation factor-binding protein GGA1 (GGA1) VHS domain (human, UniProt Q9UJY5 17-147); experiment: as above
T5 construct: GGA1, VHS domain; limits in Dataset EV2; source: E. coli BL21 DE (Gold), purified
T5 sequence (looked up): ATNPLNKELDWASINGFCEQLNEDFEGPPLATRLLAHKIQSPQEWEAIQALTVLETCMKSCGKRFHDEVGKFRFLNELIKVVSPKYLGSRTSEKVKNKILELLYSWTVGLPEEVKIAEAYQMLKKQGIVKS

[6] = target: T6, importin subunit α-3 (KPNA4) ARM domain (human); experiment: fluorescence polarisation; displacement as a1, with a FITC-labelled probe sampling the minor pocket of the KPNA4 ARM domain
T6 chain: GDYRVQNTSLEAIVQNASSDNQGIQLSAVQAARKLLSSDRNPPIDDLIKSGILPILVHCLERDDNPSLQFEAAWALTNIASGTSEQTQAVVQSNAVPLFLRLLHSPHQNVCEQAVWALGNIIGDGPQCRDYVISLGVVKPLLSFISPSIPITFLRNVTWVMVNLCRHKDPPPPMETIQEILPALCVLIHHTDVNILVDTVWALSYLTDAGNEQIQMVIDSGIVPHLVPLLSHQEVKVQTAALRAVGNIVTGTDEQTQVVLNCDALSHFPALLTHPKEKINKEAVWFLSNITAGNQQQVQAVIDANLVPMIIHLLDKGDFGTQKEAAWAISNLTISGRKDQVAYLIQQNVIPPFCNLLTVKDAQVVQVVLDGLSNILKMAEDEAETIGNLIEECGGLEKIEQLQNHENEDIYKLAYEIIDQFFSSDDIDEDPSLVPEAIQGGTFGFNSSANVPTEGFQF

[7] = target: T6, importin subunit α-3 (KPNA4) ARM domain; experiment: fluorescence polarisation; displacement as a1, with a FITC-labelled probe sampling the major pocket of the ARM domain (KPNA4, KPNA7)
[8] = target: T7, peripheral plasma membrane protein CASK (CASK) kinase domain (human, UniProt O14936 12-276); experiment: fluorescence polarisation; displacement: unlabelled peptide titrated onto a complex of FITC-labelled peptide (10 nM) and protein domain (1-2x KD); 50 mM sodium phosphate buffer pH 7.4 (CASK: plus 100 mM NaCl); KD calculated from IC50; technical triplets
T7 construct: CASK, kinase domain; limits in Dataset EV2; source: E. coli Rosetta, purified
T7 sequence (looked up): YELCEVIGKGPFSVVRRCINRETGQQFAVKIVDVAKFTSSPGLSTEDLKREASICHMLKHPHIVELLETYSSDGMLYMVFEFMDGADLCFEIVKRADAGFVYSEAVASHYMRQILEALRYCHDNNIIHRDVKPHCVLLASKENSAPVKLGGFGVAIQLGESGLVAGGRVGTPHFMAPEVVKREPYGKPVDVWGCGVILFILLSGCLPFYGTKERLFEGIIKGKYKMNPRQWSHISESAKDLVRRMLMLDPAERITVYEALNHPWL

[9] = target: importin subunit α-8 (KPNA7) ARM domain; experiment: fluorescence polarisation; displacement as a1, with a FITC-labelled probe sampling the major pocket of the ARM domain (KPNA4, KPNA7)
[10] = target: T8, Clathrin N-terminal domain (CLTC NTD) (human); experiment: fluorescence polarisation
T8 construct: also called Clathrin NTD

[11] = target: T9, Ras-GTPase-activating protein-binding protein 1 (G3BP1) NTF2 domain (human, UniProt Q13283 11-133); experiment: fluorescence polarisation
T9 construct: also called G3BP1 NTF1
T9 sequence (Q13283 11-133): as the sequence (Q13283 11-133) above

[12] = target: T10, Ras-GTPase-activating protein-binding protein 2 (G3BP2) NTF2 domain (human, UniProt Q9UN86 11-133); experiment: fluorescence polarisation
T10 sequence (looked up): T4 sequence (looked up)

[13] = target: T11, E3 ubiquitin-protein ligase NEDD4 (NEDD4) WW2 domain, GST-tagged (human); experiment: fluorescence polarisation
T11 construct: also called NEDD4 WW2-GST

[14] = target: T12, PPIA (human, UniProt P62937 1-165); experiment: fluorescence polarisation; saturation binding: dilution series of the protein domain added to 10 nM FITC-labelled peptide; 50 mM sodium phosphate pH 7.4, 0.05% Tween (protein dialysed in 50 mM sodium phosphate with 1 mM DTT; CASK kinase domain with 100 mM NaCl in addition); quadratic fit; technical triplets
T12 construct: PPIA, human; source: E. coli BL21 (DE3) Gold, purified (glutathione or Ni2+ beads)

[15] = target: T13, FITC-MYC (also: FITC label, position not given here); experiment: as above
T13 chain: PAAKRVKLD

[16] = target: T14, FITC-NCOR2 (also: FITC label, position not given here); experiment: as above
T14 chain: PKRTYDMMEGRVGRAI

Chain of importin subunit α-8 (KPNA7) ARM domain (chain, as listed by the source): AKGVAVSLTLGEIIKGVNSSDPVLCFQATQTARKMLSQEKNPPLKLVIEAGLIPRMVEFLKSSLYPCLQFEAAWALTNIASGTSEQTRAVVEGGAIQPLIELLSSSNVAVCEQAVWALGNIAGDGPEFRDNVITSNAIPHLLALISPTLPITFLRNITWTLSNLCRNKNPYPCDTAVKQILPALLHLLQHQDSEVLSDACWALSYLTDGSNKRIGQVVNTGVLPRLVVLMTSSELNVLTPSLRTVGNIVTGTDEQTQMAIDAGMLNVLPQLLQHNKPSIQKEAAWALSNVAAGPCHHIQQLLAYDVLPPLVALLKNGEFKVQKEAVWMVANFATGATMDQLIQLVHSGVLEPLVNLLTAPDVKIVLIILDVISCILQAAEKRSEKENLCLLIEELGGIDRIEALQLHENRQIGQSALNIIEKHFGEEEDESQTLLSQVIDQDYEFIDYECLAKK
T1 sequence (Q92793 587-666): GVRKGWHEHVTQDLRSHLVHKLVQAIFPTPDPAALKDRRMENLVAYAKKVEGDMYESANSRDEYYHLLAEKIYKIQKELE
T12 sequence (P62937 whole entry, the tested form may be a part): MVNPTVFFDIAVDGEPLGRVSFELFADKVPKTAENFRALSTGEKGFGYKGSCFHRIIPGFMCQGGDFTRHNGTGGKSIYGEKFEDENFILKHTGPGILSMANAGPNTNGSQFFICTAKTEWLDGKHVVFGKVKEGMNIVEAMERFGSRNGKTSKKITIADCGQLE
T11 sequence (P46934 whole entry, the tested form may be a part): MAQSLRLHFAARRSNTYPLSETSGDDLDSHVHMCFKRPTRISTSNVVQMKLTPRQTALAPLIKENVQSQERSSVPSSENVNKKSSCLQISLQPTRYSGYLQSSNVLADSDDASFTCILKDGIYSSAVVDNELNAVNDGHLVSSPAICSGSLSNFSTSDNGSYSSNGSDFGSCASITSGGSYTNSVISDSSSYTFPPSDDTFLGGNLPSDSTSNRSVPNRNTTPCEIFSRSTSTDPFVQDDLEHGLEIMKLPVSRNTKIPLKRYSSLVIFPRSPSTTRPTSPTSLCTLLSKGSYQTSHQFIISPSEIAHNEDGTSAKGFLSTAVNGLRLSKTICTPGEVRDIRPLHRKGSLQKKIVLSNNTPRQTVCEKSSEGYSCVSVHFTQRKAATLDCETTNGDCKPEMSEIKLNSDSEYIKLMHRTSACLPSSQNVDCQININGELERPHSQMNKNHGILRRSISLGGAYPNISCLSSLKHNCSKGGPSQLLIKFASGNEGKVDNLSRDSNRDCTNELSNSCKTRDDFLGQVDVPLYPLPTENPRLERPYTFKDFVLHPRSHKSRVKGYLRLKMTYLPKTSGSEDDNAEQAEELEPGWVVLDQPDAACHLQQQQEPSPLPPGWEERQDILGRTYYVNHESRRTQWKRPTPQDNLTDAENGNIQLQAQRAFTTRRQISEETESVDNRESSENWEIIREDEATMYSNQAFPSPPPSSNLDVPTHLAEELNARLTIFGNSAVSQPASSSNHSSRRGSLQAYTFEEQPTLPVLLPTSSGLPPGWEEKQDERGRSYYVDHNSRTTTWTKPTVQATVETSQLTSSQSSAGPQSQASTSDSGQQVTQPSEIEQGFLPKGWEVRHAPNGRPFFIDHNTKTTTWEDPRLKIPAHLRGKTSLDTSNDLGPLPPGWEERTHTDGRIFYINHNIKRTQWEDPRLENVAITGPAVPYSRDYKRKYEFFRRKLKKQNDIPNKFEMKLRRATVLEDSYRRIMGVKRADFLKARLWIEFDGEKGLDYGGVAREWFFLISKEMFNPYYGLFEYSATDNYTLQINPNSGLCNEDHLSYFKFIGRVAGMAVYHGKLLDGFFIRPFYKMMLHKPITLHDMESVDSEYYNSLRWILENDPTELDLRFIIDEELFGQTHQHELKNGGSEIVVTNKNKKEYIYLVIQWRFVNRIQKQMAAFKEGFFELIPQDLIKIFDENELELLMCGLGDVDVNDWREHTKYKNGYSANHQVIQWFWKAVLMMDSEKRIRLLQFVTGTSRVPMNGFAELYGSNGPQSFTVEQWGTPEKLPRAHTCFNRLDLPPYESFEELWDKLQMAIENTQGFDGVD

B1: KMT2A 2847-2861 wild-type peptide (peptide)
peptide: SDIMDFVLKNTPSMQY
notes: also called KMT2A L2854Q wild-type; source: synthetic peptide, bought: Genecust
B1 gave a Kd [1] of 380 µM.

B2: KMT2A 2847-2861 L2854Q peptide (peptide)
peptide: SDIMDFVQKNTPSMQY
notes: also called KMT2A L2854Q mutant; source: synthetic peptide, bought: Genecust
B2 gave a Kd [1] of 340 µM.

B3: NSD1 1793-1808 L1797P peptide (peptide)
peptide: EFPVPFFGSNDYLWTH
notes: also called NSD1 L1797P mutant; source: synthetic peptide, bought: Genecust
B3 showed a Kd [2] of 49 µM.

B4: CTNNB1_(27-42) S33F peptide (peptide)
peptide: QQSYLDFGIHSGATTT
notes: β-catenin residues 27-42; also called CTNNB1 S33F mutant; source: synthetic peptide, bought: Genecust
In the case of B4, the Kd [2] is reported as 57 µM.

B5: BCL11A_(44-56) wild-type peptide (peptide)
peptide: DLLTCGQAQMNFPY
notes: BCL11A residues 44-56; source: synthetic peptide, bought: Genecust
In the case of B5, the Kd [3] is reported as 1100 µM.

B6: BCL11A_(44-56) C48F peptide (peptide)
peptide: DLLTFGQAQMNFPY
notes: BCL11A residues 44-56; also called C47F BCL11A; source: synthetic peptide, bought: Genecust
In the case of B6, the Kd [4] is reported as 215 µM and the Kd [3] is reported as 361 µM.

B7: myosin-9 peptide (MYH9_(1419-1433)) wild-type (peptide)
peptide: YQQELDDLLVDLDHQR
notes: MYH9 residues 1419-1433; also called MYH9 D1424H wild-type; source: synthetic peptide, bought: Genecust
For B7, the Kd [5] was 101 µM.

B8: MYH9_(1419-1433) D1424H peptide (peptide)
peptide: YQQELDHLLVDLDHQR
notes: MYH9 residues 1419-1433; also called MYH9 D1424H mutant; source: synthetic peptide, bought: Genecust
B8 was tested, and the Kd [5] was 306 µM.

B9: ABRAXAS1_(349-364) R361Q peptide (peptide)
peptide: LDLDDRWQFKRSQLLD
notes: also called ABRAXAS1 R361Q mutant; source: synthetic peptide, bought: Genecust
With B9 the “KD, minor pocket” value [6] was 297 µM and the “KD, major pocket” value [7] was 75 µM.

B10: MAPT 717-731 R723W peptide (peptide)
peptide: YSGDTSPWHLSNVSST
notes: microtubule-associated protein tau residues 717-731; also called MAPT R723W mutant; source: synthetic peptide, bought: Genecust
With B10 the Kd [8] was 39 µM.

B11: CDC45_(152-166) wild-type peptide (peptide)
peptide: EPSEKRTRLEEEIVEY
notes: also called CDC45 R157C wild-type; source: synthetic peptide, bought: Genecust
For B11, the “KD, major pocket” value [9] was 6.6 µM.

B12: CDC45_(152-166) R157C peptide (peptide)
peptide: EPSEKCTRLEEEIVEY
notes: also called CDC45 R157C mutant; source: synthetic peptide, bought: Genecust
With B12 the “KD, major pocket” value [9] was 380 µM.

B13: FANCA 1-16 S4L peptide (peptide)
peptide: MSDLWVPNSASGQDPG
notes: FANCA residues 1-16; also called FANCA S4L mutant; source: synthetic peptide, bought: Genecust
B13 was tested, and the Kd [8] was 15 µM.

B14: MITF 258-271 wild-type peptide (peptide)
peptide: SGNLIDLYGNQGLPY
notes: also called MITF Y265C wild-type; source: synthetic peptide, bought: Genecust
B14 was tested, and the Kd [3] was 191 µM.

B15: MITF 258-271 Y265C peptide (peptide)
peptide: SGNLIDLCGNQGLPY
notes: also called MITF Y265C mutant; source: synthetic peptide, bought: Genecust
B15 was tested, and the Kd [3] was 206 µM.

For SVDLITFDSV (also: FITC label, position not given here) [FITC-NSP3], the Kd [10] was 21 µM.

For APRITFGGPSDS (also: FITC label, position not given here) [FITC-N_SARS-CoV-2], the Kd [11] was 2.51 µM and the Kd [12] was 5.4 µM.

TDSPPPYSAG (also: FITC label, position not given here) [FITC-UL56(HHV-2)] was tested, and the Kd [13] was 4.1 µM.

Work on EQVEYGPLQAQM (also: FITC label, position not given here) [FITC-SPHK2] yielded a Kd [14] of 42 µM.

B16: Importin subunit alpha-3 (KPNA4) ARM domain (domain or fragment)
chain: T6 chain
B16 was tested, and the Kd [15] was 0.008 µM and the Kd [16] was 0.03 µM.

B17: Importin subunit alpha-8 (KPNA7) ARM domain (domain or fragment)
chain: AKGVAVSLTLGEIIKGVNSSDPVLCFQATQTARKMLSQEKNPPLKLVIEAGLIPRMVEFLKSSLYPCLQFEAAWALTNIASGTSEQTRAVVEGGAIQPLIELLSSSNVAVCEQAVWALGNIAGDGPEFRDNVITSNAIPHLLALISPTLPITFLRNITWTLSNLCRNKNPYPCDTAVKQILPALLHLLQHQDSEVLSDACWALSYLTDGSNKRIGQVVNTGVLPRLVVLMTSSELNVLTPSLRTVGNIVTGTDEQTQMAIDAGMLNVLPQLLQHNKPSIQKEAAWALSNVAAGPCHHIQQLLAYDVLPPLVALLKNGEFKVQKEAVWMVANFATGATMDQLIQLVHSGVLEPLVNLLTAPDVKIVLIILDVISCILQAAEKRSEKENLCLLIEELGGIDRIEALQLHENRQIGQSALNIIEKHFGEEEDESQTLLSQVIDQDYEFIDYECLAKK
In the case of B17, the Kd [15] is reported as 7.5 µM and the Kd [16] is reported as 57 µM.
